Literature values in article PMC7226344.

Legend:
Cav3.2 (Homo sapiens) = Cav3.2 (Homo sapiens) (UniProt O95180)
[1] = target: Cav3.1 (Rattus norvegicus) (UniProt O54898)
Sequence of UniProt O54898 (O54898 whole entry): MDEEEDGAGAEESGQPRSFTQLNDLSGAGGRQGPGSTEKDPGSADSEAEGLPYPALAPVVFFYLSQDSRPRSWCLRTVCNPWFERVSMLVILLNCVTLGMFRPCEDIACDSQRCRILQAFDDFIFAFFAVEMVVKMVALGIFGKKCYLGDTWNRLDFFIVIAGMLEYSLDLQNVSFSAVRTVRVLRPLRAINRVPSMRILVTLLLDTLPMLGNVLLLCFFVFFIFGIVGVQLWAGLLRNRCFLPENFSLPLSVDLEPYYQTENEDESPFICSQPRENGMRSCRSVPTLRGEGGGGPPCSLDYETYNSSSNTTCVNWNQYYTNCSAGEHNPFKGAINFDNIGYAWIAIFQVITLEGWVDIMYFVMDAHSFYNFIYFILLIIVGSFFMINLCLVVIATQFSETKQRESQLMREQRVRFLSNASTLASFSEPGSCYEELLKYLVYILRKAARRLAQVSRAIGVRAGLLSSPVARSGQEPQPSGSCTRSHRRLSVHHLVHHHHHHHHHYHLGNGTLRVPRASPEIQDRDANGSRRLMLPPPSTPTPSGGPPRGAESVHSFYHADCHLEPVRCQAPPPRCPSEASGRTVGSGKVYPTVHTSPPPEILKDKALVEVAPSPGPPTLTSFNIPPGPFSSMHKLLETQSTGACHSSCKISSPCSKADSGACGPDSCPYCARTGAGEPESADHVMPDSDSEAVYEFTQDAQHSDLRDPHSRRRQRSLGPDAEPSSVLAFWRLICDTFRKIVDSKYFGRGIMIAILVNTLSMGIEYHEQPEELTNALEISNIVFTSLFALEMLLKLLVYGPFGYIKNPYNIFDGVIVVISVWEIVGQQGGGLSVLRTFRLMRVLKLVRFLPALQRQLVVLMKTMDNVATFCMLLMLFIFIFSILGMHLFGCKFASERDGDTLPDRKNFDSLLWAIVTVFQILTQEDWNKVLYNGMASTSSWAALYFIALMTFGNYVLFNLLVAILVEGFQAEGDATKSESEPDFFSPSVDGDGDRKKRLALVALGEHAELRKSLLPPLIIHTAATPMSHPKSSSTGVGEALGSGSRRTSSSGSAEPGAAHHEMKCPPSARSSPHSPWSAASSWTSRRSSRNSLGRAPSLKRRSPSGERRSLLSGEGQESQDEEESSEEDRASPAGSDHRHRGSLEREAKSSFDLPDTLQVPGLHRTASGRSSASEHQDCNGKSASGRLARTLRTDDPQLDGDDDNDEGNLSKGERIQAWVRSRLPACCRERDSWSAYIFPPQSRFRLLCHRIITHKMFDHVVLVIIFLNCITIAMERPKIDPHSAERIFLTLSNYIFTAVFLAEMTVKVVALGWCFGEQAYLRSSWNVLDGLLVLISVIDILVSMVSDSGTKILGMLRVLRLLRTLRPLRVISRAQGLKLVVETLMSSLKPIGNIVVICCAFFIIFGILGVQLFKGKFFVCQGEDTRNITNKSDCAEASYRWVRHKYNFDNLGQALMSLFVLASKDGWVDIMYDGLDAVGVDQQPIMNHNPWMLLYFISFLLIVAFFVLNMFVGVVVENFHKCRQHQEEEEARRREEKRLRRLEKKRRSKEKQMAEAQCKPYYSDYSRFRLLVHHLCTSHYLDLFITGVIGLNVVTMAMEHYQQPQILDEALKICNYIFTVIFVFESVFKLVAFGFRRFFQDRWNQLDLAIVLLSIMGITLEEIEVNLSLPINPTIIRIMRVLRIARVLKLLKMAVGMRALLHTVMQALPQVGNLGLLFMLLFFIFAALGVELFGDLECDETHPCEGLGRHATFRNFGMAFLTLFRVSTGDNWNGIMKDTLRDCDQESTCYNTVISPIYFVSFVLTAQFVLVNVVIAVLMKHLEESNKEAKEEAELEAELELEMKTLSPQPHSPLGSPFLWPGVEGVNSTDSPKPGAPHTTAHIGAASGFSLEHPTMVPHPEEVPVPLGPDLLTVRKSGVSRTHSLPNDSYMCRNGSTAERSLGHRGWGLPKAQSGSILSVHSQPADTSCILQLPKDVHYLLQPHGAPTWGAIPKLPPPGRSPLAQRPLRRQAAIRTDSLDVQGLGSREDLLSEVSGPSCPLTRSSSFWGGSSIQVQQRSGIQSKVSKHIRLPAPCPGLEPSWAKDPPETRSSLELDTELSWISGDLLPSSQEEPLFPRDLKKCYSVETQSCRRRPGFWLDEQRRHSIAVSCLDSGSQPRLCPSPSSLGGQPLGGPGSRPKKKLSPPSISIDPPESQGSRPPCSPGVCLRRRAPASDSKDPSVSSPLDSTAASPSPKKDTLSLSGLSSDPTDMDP

Sequence of UniProt O95180 (O95180 whole entry): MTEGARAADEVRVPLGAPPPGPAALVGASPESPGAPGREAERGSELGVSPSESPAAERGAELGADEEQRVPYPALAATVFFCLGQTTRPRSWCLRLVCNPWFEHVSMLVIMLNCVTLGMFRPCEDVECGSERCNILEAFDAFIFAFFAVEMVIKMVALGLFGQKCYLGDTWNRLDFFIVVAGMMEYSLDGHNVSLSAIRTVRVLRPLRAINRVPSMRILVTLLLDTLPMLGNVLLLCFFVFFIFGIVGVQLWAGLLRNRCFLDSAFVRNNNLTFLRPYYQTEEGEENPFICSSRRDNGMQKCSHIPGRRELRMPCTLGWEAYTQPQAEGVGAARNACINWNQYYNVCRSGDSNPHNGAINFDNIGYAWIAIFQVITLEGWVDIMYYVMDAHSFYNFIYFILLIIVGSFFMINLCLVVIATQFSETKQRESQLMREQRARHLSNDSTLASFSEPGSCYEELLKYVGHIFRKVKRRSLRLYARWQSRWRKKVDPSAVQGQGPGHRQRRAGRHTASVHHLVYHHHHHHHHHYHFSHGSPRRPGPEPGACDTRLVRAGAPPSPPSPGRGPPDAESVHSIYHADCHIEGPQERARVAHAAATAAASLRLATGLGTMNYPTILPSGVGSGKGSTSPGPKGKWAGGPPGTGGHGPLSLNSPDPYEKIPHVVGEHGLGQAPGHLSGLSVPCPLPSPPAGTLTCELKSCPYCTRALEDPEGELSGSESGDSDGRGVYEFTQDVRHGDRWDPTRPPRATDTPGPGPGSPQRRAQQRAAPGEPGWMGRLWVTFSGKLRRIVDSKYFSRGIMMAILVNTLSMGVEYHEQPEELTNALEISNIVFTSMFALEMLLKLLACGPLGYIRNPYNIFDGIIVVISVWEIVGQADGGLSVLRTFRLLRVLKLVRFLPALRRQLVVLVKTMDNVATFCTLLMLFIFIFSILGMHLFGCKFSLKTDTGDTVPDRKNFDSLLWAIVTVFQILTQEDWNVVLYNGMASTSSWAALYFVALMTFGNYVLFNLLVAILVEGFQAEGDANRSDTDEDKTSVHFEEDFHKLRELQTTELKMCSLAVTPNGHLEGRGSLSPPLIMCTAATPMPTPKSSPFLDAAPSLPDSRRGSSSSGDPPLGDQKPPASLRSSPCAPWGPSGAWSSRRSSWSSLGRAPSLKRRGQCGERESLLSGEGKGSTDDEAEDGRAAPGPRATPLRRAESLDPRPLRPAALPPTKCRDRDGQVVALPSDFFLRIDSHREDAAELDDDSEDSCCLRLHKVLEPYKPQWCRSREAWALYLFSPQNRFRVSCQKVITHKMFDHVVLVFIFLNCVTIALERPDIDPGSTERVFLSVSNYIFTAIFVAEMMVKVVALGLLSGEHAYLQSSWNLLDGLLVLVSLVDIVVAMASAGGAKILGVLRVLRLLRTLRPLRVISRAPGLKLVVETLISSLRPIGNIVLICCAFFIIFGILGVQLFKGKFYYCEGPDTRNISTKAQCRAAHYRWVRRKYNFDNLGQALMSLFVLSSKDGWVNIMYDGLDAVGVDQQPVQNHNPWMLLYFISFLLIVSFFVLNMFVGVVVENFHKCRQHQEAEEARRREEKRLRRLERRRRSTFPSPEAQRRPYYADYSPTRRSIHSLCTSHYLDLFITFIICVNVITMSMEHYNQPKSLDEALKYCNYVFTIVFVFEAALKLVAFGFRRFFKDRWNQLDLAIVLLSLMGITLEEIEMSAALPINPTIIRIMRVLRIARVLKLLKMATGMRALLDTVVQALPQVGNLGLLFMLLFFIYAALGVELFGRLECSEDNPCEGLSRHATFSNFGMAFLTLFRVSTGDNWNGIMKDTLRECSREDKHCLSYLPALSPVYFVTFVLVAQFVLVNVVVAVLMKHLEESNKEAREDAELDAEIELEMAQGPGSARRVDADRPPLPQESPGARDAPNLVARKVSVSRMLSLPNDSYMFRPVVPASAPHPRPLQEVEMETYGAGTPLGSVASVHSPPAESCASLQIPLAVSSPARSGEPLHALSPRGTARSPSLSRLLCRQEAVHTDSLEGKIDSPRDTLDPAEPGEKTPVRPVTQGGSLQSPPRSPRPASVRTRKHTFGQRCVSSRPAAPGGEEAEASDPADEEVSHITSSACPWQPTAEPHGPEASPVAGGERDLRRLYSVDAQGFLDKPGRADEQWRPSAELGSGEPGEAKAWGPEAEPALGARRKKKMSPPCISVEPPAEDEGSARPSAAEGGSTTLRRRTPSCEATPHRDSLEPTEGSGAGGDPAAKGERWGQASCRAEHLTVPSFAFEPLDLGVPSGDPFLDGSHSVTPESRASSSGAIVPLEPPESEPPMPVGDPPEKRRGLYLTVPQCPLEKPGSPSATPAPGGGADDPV

## kurtoxin (from UniProt P58910)
Cav3.2 (Homo sapiens)
  Kd: 0.061 µM
[1]
  Kd: 0.015 µM
